Test results taken from the nanobody polyreactivity screen of Harvey et al. (2022).

Test: yeast display, Sf9 membrane polyspecificity reagent, FACS + sequencing; frameworks hold sequencing errors
Method in brief: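 A synthetic nanobody library was expressed on Saccharomyces cerevisiae BJ5465 by galactose induction for 36–48 hours. The library was stained for 1 hour at 4 °C with 10% biotinylated, detergent-solubilized Sf9 membrane reagent and enriched with streptavidin microbeads before FACS. Low and high (top ~1%) gates were set on anti-HA fluorescence for expression and streptavidin fluorescence for reagent binding, and each polyreactivity label reflects the gate of origin.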

Sequence	polyreactivity (PSR sort gate)
QVQLVESGGGLVQAGGSLRLSCAASGRIFYYNAMGWYRQAPGKERELVAAIRGGGSTNYADSVKGRFTISRDNAKNTVYLQMNSLKPEDTAVYYCAAPWTQILDYWGQGTQVTVSS	low polyreactivity
QVQLVESGGGLVQAGGSLRLSCAASGRIFYYNAMGWYRQAPGKESELVAAIRYSGGSTSYADSVKGRFTISRDNAKNTVYLQMNSLKPEDTAVYYCAASTSNRWKLNYWGQGTQVTVSS	high polyreactivity
QVQLVESGGGLVQAGGSLRLSCAASGRIFYYNTMGWYRQAPGKERELVAAITRSGGSTYYADSVKGRFTISRDNAKNTVYLQMNSLKPEDTAVYYCAAQRRYDTADHGYWGQGTQVTVSS	high polyreactivity
QVQLVESGGGLVQAGGSLRLSCAASGRIFYYYAMGWYRQAPGKERELVAAISAGGGRTYYADSVKGRFTISRDNAKNTVYLQMNSLKPEDTAVYYCAVGRRIPGKYTSFGYWGQGTQVTVSS	high polyreactivity
QVQLVESGGGLVQAGGSLRLSCAASGRIFYYYAMGWYRQAPGKERELVAAITWSGVNTYYADSVKGRFTISRDNAKNTVYLQMNSLKPEDTAVYYCATDTGYPYSYDLYDSYYWGQGTQVTVSS	low polyreactivity
QVQLVESGGGLVQAGGSLRLSCAASGRIFYYYAMGWYRQAPGKERELVAGIDSGDSTNYADSVKGRFTISRDNAKNTVYLQMNSLKPEDTAVYYCAALHYGGYFSYYPYYYWGQGTQVTVSS	low polyreactivity
QVQLVESGGGLVQAGGSLRLSCAASGRIFYYYAMGWYRQAPGKERELVATISSSGGSTYYADSVRGRFTISRDNAKNTVYLQMNSLKPEDTAVYYCAARVPLWSRGRTTWPKSQYEYWGQGTQVTVSS	high polyreactivity
QVQLVESGGGLVQAGGSLRLSCAASGRIFYYYAMGWYRQAPGKERELVATITTTGNTYYADSVKGRFTISRDNAKNTVYLQMNSLKPEDTAVYYCNAGWDLVYGYYPRRKNFDYWGQRTQVTVSS	high polyreactivity
QVQLVESGGGLVQAGGSLRLSCAASGRIFYYYAMGWYRQAPGKESELVAAISGGGGRTYYADSVKGRFTISRDNAKHTVYLQMNSLKPEDTAVYYCNADYFYRTVNQRYDYWGQGTQVTVSS	high polyreactivity
QVQLVESGGGLVQAGGSLRLSCAASGRIFYYYDMGWNRQAPGQERELVAAISFSDGITYYADSVKGRFTISRDNAKNTVYLQMNSLKPEDTAVYYCAAVYRYRNRREYDYWGQGTEVTVSS	high polyreactivity
QVQLVESGGGLVQAGGSLRLSCAASGRIGYYAMGWYRQAPGKERELVATISRGGSTKYADSVKGRFTISRDNAKNTVYLQMNSLKPEDTAVYYCAAARAPRYDYWGQGTQVTVSS	high polyreactivity
QVQLVESGGGLVQAGGSLRLSCAASGRIIAYYAMGWYRQAPGKERELVAAISRRGGSTYYADSVKGRFTISRDNAKNTVYLQMNSLKPEDTAVYYCDTLTLESFSALYYWGQGTQVTVSS	low polyreactivity
QVQLVESGGGLVQAGGSLRLSCAASGRIIDRNAMGWYRQAPGKERELFAAISSSGSTNYADSVKGRFTISRDNAKNTVYLQMNSLKPEDTAVYYCAARWRYVLAAGTRPVSFDYWGQGTQVTVSS	low polyreactivity
QVQLVESGGGLVQAGGSLRLSCAASGRIIEYYAMGWYRQAPGKERELVAAISSGGSTYYADSVKGRFTISRDNAKNTVYLQMNSLKPEDTAVYYCNTRYVYTRGGPLKRDYWGQGTQVTVSS	high polyreactivity
QVQLVESGGGLVQAGGSLRLSCAASGRIIGAYAMGWYRQAPGKERELVARISWSGGTTYYADSVKGRFTISRDNAKNTVYLQMDSLKPEDTAVYYCAARYSYYVTGGISKYDYWGQGTQVSVSS	low polyreactivity
QVQLVESGGGLVQAGGSLRLSCAASGRIIGNNAMGWYRHAPGKERELVATISSRGGSTYYAESVKGRFTISRDNAKNTVYFQMNSLKPEDTAVYYCKAYTTLAYDLDYWGQGTQVTVSS	high polyreactivity
QVQLVESGGGLVQAGGSLRLSCAASGRIIGYYAMGWYRQAPGKERELGAAITRGGSTNYADSVKGRFTISRDNAKNTVYLQMNSLKPEDTAVYYCAADLARYGKRYDYWGQGTQVTVSS	low polyreactivity
QVQLVESGGGLVQAGGSLRLSCAASGRIIPGNAMGWYRQAPGKERELVAAISWGGGSTYYADSVKGRFTISRDNAKNTVYLQMNSLKPEDTAVYYCNAGVSIGRSRRYDYWGQGTQVTVSS	low polyreactivity
QVQLVESGGGLVQAGGSLRLSCAASGRIIQYNAMGWYRQAPGKERELVAAISWRSRRTYYADSVKGRFTISRDNAKNTVYIQMNSLKPEDTAVYYCAATSRTSWYGYWGQGTQVTVSS	high polyreactivity
QVQLVESGGGLVQAGGSLRLSCAASGRIIRDNAMGWYRQAPGKERELVAAISRRGGSTYYADSVKGRFTISRDNAKNTVYLQMNSRKPEDTAVYYCNKTTHSRTFRYDYWGQGTQVTVSS	low polyreactivity
QVQLVESGGGLVQAGGSLRLSCAASGRIIRPYAMGWYRQAPGKERDFVATIRFTTGRTYYADSVKGRFTISRDNAKNTVYLQMNSLKPDDTAVYYCAADFAFVNYAKISYTTHDYWGQGTQVTVSS	high polyreactivity
QVQLVESGGGLVQAGGSLRLSCAASGRIIRQYAMGWYRKAPGKERELVAVISAGGARTYYADSVKGRFTISRDNAKNTVYLQMNSLKPEDTEVYYCAAELPTSQYDYYYWGQGTQVTVSS	high polyreactivity
QVQLVESGGGLVQAGGSLRLSCAASGRIISINAMVWYRQAPGKERELVAAINSGGSTHYADSVKGRFTISRDNAKNTVYLQMNSLKPEDTAVYYCAARKTVSYFRVRTFDYWGQGTQVTVSS	low polyreactivity
QVQLVESGGGLVQAGGSLRLSCAASGRIISRYAMGWYRQAPGKERELVAAISRRGGSTYYADSVKGRFTISRDNAKNTVYLQMNSLKPEDTAVYYCAAVRRKTAGGLEDYWGQGTQVTVSS	high polyreactivity
QVQLVESGGGLVQAGGSLRLSCAASGRIISSYAMVWYRQAPGKETELVAAISWDGGSTYYADSVKGRFTISRDNANNTVYLQMNSLKPEDTAVYYCATDATRPWYDYWGQGTQVTVSS	low polyreactivity
QVQLVESGGGLVQAGGSLRLSCAASGRIISYNAMGWYRQAPAKERELVAAISWGGGSTYYADSVKGRFTISRDTAKNTVYLQMNSLKPEDTAVSYCAKGWYRIKRNDYWGQGTQVTVSS	low polyreactivity
QVQLVESGGGLVQAGGSLRLSCAASGRIISYNAMGWYRQAPGKERELVAAISWGGGSTYYADSVKGRFTISRDNAKNTVYLQLNSLKPEDTAVYYCAKGWYRIKRNDYWGQGTQVTVSS	low polyreactivity
QVQLVESGGGLVQAGGSLRLSCAASGRIITEYVTGCYTQAPGKERELDAAAITRGGSTNYADSVKGRFTLSRDNAKNTVYLQKNSLIPEDTAVYHCNKDDWPVSRQLYTGKHDSWGQGTQVTVSS	low polyreactivity
QVQLVESGGGLVQAGGSLRLSCAASGRIITKYTMGWYRQAPGKERELFAAISRSDRTNYADSVKGRFTISRDNAKNTVYLQMNSLKPEDTAVYYCNARHSYWTGRRVTDDYDYRGQGTQVTVSS	high polyreactivity
QVQLVESGGGLVQAGGSLRLSCAASGRIITRYTMGWYRQAPGKERELVASITSSGSSTYYADSVKGRFTISRDNAKNTFYLQMNSLKPEDTAVYYCAARSRLRYLYDYWGQGTQVTVSS	high polyreactivity
